IC50 data for four molecules are collected here from patent publication US20140315986, “APTAMERS THAT BIND TO IL-6 AND THEIR USE IN TREATING OR DIAGNOSING IL-6 MEDIATED CONDITIONS” (Otsuka Pharmaceutical Co., Ltd., published 2014).

In the series the target is IL-6 (mature human interleukin-6) (Homo sapiens, UniProt P05231 SEQ:1-184). Kind of series: cell_activity. As to conditions: tags: untagged, R&D Systems; biotinylated with NHS-PEO4-biotin for SELEX.
Chain of IL-6 (mature human interleukin-6) (P05231 29-212): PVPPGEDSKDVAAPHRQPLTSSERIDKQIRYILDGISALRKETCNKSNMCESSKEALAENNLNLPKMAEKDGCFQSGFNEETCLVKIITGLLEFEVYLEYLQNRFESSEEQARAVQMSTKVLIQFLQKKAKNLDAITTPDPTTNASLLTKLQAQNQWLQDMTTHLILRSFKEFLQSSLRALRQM

B1: 2573-20_780 (ssDNA)
DNA: GGCAGGUUUGGUAUUAACACGUUAAGUCGUGG
modifications: G-G-C1-A-G-G1-Bn-Bn-Pe2-G-G-Nap-A-Bn-Bn-A1-A-C-A1-C1-G-Bn-Bn2-A-A-G-Bn-C1-G-Bn2-G-G (1=2'-OMe, 2=PS)
Molecule B1 returned an IC50 of 0.087 nM.

B2: 2574-49_411 (ssDNA)
DNA: GGGUUAUGUAGCGUGCGUAAGGCGGU
modifications: G-G1-G-Nap1-Nap2-A2-Nap2-G-Nap1-A2-G1-C1-C3-C3-G1-U1-G1-C2-G2-Nap1-A2-A2-G2-G1-C2-G1-G1-Nap1 (1=2'-OMe, 2=PS)
For B2, 5.8 nM corresponded to half-maximal inhibition (IC50).

B3: 2574-49_338 (ssDNA)
DNA: GGGUUAUGUAGCGUGCGUAAGGCGGU
modifications: G-G1-G-Nap1-Nap2-A-Nap-G-Nap1-A-G-C-C3-C3-G1-U1-G1-C-G-Nap1-A-A-G-G-C-G1-G1-Nap1 (1=2'-OMe, 2=PS)
The molecule B3 gave an IC50 of 0.02 nM.

B4: 2574-49_326 (ssDNA)
DNA: GGGUUAUGUAGCGUGCGUAAGGCGGU
modifications: G-G1-G-Nap1-Nap-A-Nap-G-Nap1-A-G-C-C3-C3-G-U1-G1-C-G-Nap1-A-A-G-G-C-G1-G1-Nap1 (1=2'-OMe)
Take B4: the IC50 worked out at 0.11 nM.
